This is an account of results in PMC8358021 (2021).

The target in this assay is T1, AbApeO-AbApeC heterodimer (ketosynthase-chain length factor complex of the aryl polyene biosynthesis gene … (Acinetobacter baumannii)).
T1 chain 1: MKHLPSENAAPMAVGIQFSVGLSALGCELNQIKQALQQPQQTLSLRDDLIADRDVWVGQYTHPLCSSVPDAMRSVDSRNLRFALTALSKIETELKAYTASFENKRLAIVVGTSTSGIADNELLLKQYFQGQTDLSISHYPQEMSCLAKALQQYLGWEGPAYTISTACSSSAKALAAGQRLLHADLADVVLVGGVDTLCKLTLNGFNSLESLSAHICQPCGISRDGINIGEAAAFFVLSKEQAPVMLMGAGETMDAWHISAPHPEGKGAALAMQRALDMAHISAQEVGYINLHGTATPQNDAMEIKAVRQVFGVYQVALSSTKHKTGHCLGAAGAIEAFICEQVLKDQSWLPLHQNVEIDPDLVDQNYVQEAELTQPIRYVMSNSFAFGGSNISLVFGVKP
T1 chain 2: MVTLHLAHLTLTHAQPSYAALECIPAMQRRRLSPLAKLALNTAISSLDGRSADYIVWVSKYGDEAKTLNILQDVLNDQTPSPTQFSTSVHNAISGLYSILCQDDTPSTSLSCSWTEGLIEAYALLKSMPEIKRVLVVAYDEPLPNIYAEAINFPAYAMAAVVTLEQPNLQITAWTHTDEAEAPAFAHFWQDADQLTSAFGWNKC
Description: ITC. (In general: In ITC the heat of successive injections is recorded.)

B1: holo ACP2 (ApeF), acyl carrier protein 2 of the A. baumannii APE gene cluster (natural protein)
chain: MSNLADELKQMIIDVLALEDITIADIDTEAPLFGEGLGLDSIDALELGLALKKRYNIHLNAESDETKQHFKSIQSLVALVEAQQKS
modifications: 4'-phosphopantetheine (holo form)
Turning to B1, the equilibrium dissociation constant (Kd) came out at 42.7 µM.

As usually defined, the Kd is the equilibrium constant for the complex coming apart.
